Molecular target: BRCA1 (UniProt P38398)
Test: anti-GFP co-IP from nuclear extract, blot
Conditions: reference: wild type GFP-CtIP; sites S327

- binding against the reference: lost
Substance: CtIP (from UniProt Q99708) S327A

Reference: article PMC7162537
